Source: US20030023055

Legend:
[1] = target: PHAS-1
[2] = target: histone H1
[3] = target: myelin basic protein

B1: FLAG®-tagged Atr-2 protein (73 kDa Atr-2 truncated protein encoded by pCIneoFLAGATR2) (protein)
chain: MLVAELRRVTVLWDELWLGVLLQQHMYVLRRIQQLEDEVKRVQNNNTLRKEEKIAIMREKHTALMKPIVFALEHVRSITAAPAETPHEKWFQDNYGDAIENALEKLKTPLNPAKPGSSWIPFKEIMLSLQQRAQKRASYILRLEEISPWLAAMTNTEIALPGEVSARDTVTIHSVGGTITILPTKTKPKKLLFLGSDGKSYPYLFKGLEDLHLDERIMQFLSIVNTMFATINRQETPRFHARHYSVTPLGTRSGLIQWVDGATPLFGLYKRWQQREAALQAQKAQDSYQTPQNPGIVPRPSELYYSKIGPALKTVGLSLDVSRRDWPLHVMKAVLEELMEATPPNLLAKELWSSCTTPDEWWRVTQSYARSTAVMSMVGYIIGLGDRHLDNVLIDMTTGEVVHIDYNVCFEKGKSLRVPEKVPFRMTQNIETALGVTGVEGVFRLSCEQVLHIMRRGRETLLTLLEAFVYDPLVDWTAGGEAGFAGAVYGGGGQQAESKQSKREMEREITRSLFSSRVAEIKVNWFKNRDEMLVVLPKLDGSLDEYLSLQEQLTDVEKLQGKLLEEIEFLEGAEGVDHPSHTLQHRYSEHTQLQTQQRAVQEAIQVKLNEFEQWITHYQAAFNNLEATQLASLLQEISTQMDLGPPSYVPA
- kinase activity (32P-ATP incorporation, P81 paper, Cerenkov radiation): able to phosphorylate the Atr-2 protein itself
- kinase activity (32P-ATP incorporation, P81 paper, Cerenkov radiation) [1]: did not phosphorylate PHAS-1 or histone H1
- kinase activity (32P-ATP incorporation, P81 paper, Cerenkov radiation) [2]: did not phosphorylate PHAS-1 or histone H1
- kinase activity (32P-ATP incorporation, P81 paper, Cerenkov radiation) [3]: able to phosphorylate the Atr-2 protein itself and the exogenous myelin basic protein substrate
